Patent US20210230570A1 (published 2021)

T1: Factor VIIIa (recombinant FVIII, Kogenate FS, Bayer healthcare, activated with alpha-thrombin) (UniProt P00451 20-2351, limits assumed)
T1 construct: also called FVIIIa; cofactor
T1 sequence (looked up): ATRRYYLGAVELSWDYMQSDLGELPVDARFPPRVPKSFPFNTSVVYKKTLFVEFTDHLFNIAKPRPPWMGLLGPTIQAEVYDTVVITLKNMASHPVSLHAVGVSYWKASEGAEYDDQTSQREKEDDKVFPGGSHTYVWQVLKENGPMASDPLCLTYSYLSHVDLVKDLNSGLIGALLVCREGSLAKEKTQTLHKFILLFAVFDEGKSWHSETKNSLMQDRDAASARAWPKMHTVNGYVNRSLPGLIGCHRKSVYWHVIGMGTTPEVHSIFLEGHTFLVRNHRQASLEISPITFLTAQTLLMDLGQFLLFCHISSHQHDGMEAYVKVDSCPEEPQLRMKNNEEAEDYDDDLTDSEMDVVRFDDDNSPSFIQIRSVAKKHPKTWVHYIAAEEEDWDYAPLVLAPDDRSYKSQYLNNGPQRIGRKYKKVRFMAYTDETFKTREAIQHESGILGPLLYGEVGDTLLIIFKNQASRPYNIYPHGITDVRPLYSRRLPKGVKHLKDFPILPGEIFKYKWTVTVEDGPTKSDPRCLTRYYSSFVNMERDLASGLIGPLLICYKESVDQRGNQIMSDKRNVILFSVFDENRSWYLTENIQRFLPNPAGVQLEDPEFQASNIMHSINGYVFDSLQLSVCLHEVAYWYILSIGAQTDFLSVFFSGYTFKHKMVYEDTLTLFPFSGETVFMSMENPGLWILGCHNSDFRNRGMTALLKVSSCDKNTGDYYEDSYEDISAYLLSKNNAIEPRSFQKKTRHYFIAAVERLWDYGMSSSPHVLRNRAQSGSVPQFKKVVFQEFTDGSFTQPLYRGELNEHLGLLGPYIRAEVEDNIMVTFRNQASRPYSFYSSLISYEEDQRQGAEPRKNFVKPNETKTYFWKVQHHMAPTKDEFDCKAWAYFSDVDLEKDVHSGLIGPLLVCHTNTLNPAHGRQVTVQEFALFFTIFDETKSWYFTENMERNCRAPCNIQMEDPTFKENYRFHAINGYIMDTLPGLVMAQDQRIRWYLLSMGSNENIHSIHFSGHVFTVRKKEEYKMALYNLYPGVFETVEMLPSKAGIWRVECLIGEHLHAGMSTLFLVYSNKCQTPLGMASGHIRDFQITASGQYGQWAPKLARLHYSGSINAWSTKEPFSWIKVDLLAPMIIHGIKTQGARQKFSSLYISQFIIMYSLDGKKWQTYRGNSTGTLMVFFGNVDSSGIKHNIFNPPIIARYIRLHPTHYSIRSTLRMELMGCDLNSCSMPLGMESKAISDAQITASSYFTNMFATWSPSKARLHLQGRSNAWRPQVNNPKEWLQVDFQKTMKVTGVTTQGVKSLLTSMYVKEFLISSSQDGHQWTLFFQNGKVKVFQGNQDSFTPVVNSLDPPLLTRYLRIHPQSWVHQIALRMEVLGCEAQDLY


Target: T1, Factor VIIIa (recombinant FVIII, …)
Test: same assay; KD-app of Catalyst Biosciences WT FIXa divided by KD-app of the variant
Protocol: The molar concentration of FVIII was then determined by absorbance at 280 nm using an extinction coefficient of 1.567 mg⁻¹ mL cm⁻¹ and a molecular weight of 163.6 kDa.

Binder	KD-WT/KD-mut [ratio]
FIXa-A103N/N105S/K247N/N249S/R318Y/R338E/R403E/E410N (enzyme) chain 1: YNSGKLEEFVQGNLERECMEEKCSFEEAREVFENTERTTEFWKQYVDGDQCESNPCLNGGSCKDDINSYECWCPFGFEGKNCELDVTCNIKNGRCEQFCKNSNDSKVVCSCTEGYRLAENQKSCEPAVPFPCGRVSVSQTSKLTR chain 2: VVGGEDAKPGQFPWQVVLNGKVDAFCGGSIVNEKWIVTAAHCVETGVKITVVAGEHNIEETEHTEQNRSVIRIIPHHNYNAAINKYNHDIALLELDEPLVLNSYVTPICIADKEYTNIFLKFGSGYVSGWGRVFHKGYSALVLQYLRVPLVDRATCLESTKFTIYNNMFCAGFHEGGRDSCQGDSGGPHVTEVEGTSFLTGIISWGEECAMKGKYGIYTKVSEYVNWIKNKTKLT	1
FIXa-D104N/K106S/I251S/R318Y/R338E/E410N (enzyme) chain 1: YNSGKLEEFVQGNLERECMEEKCSFEEAREVFENTERTTEFWKQYVDGDQCESNPCLNGGSCKDDINSYECWCPFGFEGKNCELDVTCNIKNGRCEQFCKNSANNSVVCSCTEGYRLAENQKSCEPAVPFPCGRVSVSQTSKLTR chain 2: VVGGEDAKPGQFPWQVVLNGKVDAFCGGSIVNEKWIVTAAHCVETGVKITVVAGEHNIEETEHTEQKRNVSRIIPHHNYNAAINKYNHDIALLELDEPLVLNSYVTPICIADKEYTNIFLKFGSGYVSGWGRVFHKGYSALVLQYLRVPLVDRATCLESTKFTIYNNMFCAGFHEGGRDSCQGDSGGPHVTEVEGTSFLTGIISWGEECAMKGKYGIYTKVSRYVNWIKNKTKLT	7.7
FIXa-D104N/K106S/I251S/R318Y/R338E/R403E/E410N (enzyme) chain 1: YNSGKLEEFVQGNLERECMEEKCSFEEAREVFENTERTTEFWKQYVDGDQCESNPCLNGGSCKDDINSYECWCPFGFEGKNCELDVTCNIKNGRCEQFCKNSANNSVVCSCTEGYRLAENQKSCEPAVPFPCGRVSVSQTSKLTR chain 2: VVGGEDAKPGQFPWQVVLNGKVDAFCGGSIVNEKWIVTAAHCVETGVKITVVAGEHNIEETEHTEQKRNVSRIIPHHNYNAAINKYNHDIALLELDEPLVLNSYVTPICIADKEYTNIFLKFGSGYVSGWGRVFHKGYSALVLQYLRVPLVDRATCLESTKFTIYNNMFCAGFHEGGRDSCQGDSGGPHVTEVEGTSFLTGIISWGEECAMKGKYGIYTKVSEYVNWIKNKTKLT	1.7
FIXa-D104N/K106S/K247N/N249S/R318Y/R338E/R403E/E410N (enzyme) chain 1: YNSGKLEEFVQGNLERECMEEKCSFEEAREVFENTERTTEFWKQYVDGDQCESNPCLNGGSCKDDINSYECWCPFGFEGKNCELDVTCNIKNGRCEQFCKNSANNSVVCSCTEGYRLAENQKSCEPAVPFPCGRVSVSQTSKLTR chain 2: VVGGEDAKPGQFPWQVVLNGKVDAFCGGSIVNEKWIVTAAHCVETGVKITVVAGEHNIEETEHTEQNRSVIRIIPHHNYNAAINKYNHDIALLELDEPLVLNSYVTPICIADKEYTNIFLKFGSGYVSGWGRVFHKGYSALVLQYLRVPLVDRATCLESTKFTIYNNMFCAGFHEGGRDSCQGDSGGPHVTEVEGTSFLTGIISWGEECAMKGKYGIYTKVSEYVNWIKNKTKLT	1.1
FIXa-I251S/R318Y/R338E/E410N (enzyme, also called I251S/R318Y/E410N/R338E; I86S/R150Y/R170E/E240N (chymotrypsin numbering)) chain 1: YNSGKLEEFVQGNLERECMEEKCSFEEAREVFENTERTTEFWKQYVDGDQCESNPCLNGGSCKDDINSYECWCPFGFEGKNCELDVTCNIKNGRCEQFCKNSADNKVVCSCTEGYRLAENQKSCEPAVPFPCGRVSVSQTSKLTR chain 2: VVGGEDAKPGQFPWQVVLNGKVDAFCGGSIVNEKWIVTAAHCVETGVKITVVAGEHNIEETEHTEQKRNVSRIIPHHNYNAAINKYNHDIALLELDEPLVLNSYVTPICIADKEYTNIFLKFGSGYVSGWGRVFHKGYSALVLQYLRVPLVDRATCLESTKFTIYNNMFCAGFHEGGRDSCQGDSGGPHVTEVEGTSFLTGIISWGEECAMKGKYGIYTKVSRYVNWIKNKTKLT	16.7
FIXa-I251S/R318Y/R338E/R403E/E410N (enzyme, also called I86S/R150Y/R170E/R233E/E240N (chymotrypsin numbering)) chain 1: YNSGKLEEFVQGNLERECMEEKCSFEEAREVFENTERTTEFWKQYVDGDQCESNPCLNGGSCKDDINSYECWCPFGFEGKNCELDVTCNIKNGRCEQFCKNSADNKVVCSCTEGYRLAENQKSCEPAVPFPCGRVSVSQTSKLTR chain 2: VVGGEDAKPGQFPWQVVLNGKVDAFCGGSIVNEKWIVTAAHCVETGVKITVVAGEHNIEETEHTEQKRNVSRIIPHHNYNAAINKYNHDIALLELDEPLVLNSYVTPICIADKEYTNIFLKFGSGYVSGWGRVFHKGYSALVLQYLRVPLVDRATCLESTKFTIYNNMFCAGFHEGGRDSCQGDSGGPHVTEVEGTSFLTGIISWGEECAMKGKYGIYTKVSEYVNWIKNKTKLT	1.5
FIXa-K228N/K247N/N249S (enzyme, also called K63N/K82N/N84S (chymotrypsin numbering)) chain 1: YNSGKLEEFVQGNLERECMEEKCSFEEAREVFENTERTTEFWKQYVDGDQCESNPCLNGGSCKDDINSYECWCPFGFEGKNCELDVTCNIKNGRCEQFCKNSADNKVVCSCTEGYRLAENQKSCEPAVPFPCGRVSVSQTSKLTR chain 2: VVGGEDAKPGQFPWQVVLNGKVDAFCGGSIVNEKWIVTAAHCVETGVNITVVAGEHNIEETEHTEQNRSVIRIIPHHNYNAAINKYNHDIALLELDEPLVLNSYVTPICIADKEYTNIFLKFGSGYVSGWGRVFHKGRSALVLQYLRVPLVDRATCLRSTKFTIYNNMFCAGFHEGGRDSCQGDSGGPHVTEVEGTSFLTGIISWGEECAMKGKYGIYTKVSRYVNWIKEKTKLT	0.8
FIXa-K228N/K247N/N249S/R318Y/R338E/R403E/E410N (enzyme, also called K63N/K82N/N84S/R150Y/R170E/R233E/E240N (chymotrypsin numbering)) chain 1: YNSGKLEEFVQGNLERECMEEKCSFEEAREVFENTERTTEFWKQYVDGDQCESNPCLNGGSCKDDINSYECWCPFGFEGKNCELDVTCNIKNGRCEQFCKNSADNKVVCSCTEGYRLAENQKSCEPAVPFPCGRVSVSQTSKLTR chain 2: VVGGEDAKPGQFPWQVVLNGKVDAFCGGSIVNEKWIVTAAHCVETGVNITVVAGEHNIEETEHTEQNRSVIRIIPHHNYNAAINKYNHDIALLELDEPLVLNSYVTPICIADKEYTNIFLKFGSGYVSGWGRVFHKGYSALVLQYLRVPLVDRATCLESTKFTIYNNMFCAGFHEGGRDSCQGDSGGPHVTEVEGTSFLTGIISWGEECAMKGKYGIYTKVSEYVNWIKNKTKLT	0.9
FIXa-K247N/N249S/N260S (enzyme, also called K82N/N84S/N95S (chymotrypsin numbering)) chain 1: YNSGKLEEFVQGNLERECMEEKCSFEEAREVFENTERTTEFWKQYVDGDQCESNPCLNGGSCKDDINSYECWCPFGFEGKNCELDVTCNIKNGRCEQFCKNSADNKVVCSCTEGYRLAENQKSCEPAVPFPCGRVSVSQTSKLTR chain 2: VVGGEDAKPGQFPWQVVLNGKVDAFCGGSIVNEKWIVTAAHCVETGVKITVVAGEHNIEETEHTEQNRSVIRIIPHHNYSAAINKYNHDIALLELDEPLVLNSYVTPICIADKEYTNIFLKFGSGYVSGWGRVFHKGRSALVLQYLRVPLVDRATCLRSTKFTIYNNMFCAGFHEGGRDSCQGDSGGPHVTEVEGTSFLTGIISWGEECAMKGKYGIYTKVSRYVNWIKEKTKLT	0.6
FIXa-K247N/N249S/N260S/R318Y/R338E/R403E/E410N (enzyme, also called K82N/N84S/N95S/R150Y/R170E/R233E/E240N (chymotrypsin numbering)) chain 1: YNSGKLEEFVQGNLERECMEEKCSFEEAREVFENTERTTEFWKQYVDGDQCESNPCLNGGSCKDDINSYECWCPFGFEGKNCELDVTCNIKNGRCEQFCKNSADNKVVCSCTEGYRLAENQKSCEPAVPFPCGRVSVSQTSKLTR chain 2: VVGGEDAKPGQFPWQVVLNGKVDAFCGGSIVNEKWIVTAAHCVETGVKITVVAGEHNIEETEHTEQNRSVIRIIPHHNYSAAINKYNHDIALLELDEPLVLNSYVTPICIADKEYTNIFLKFGSGYVSGWGRVFHKGYSALVLQYLRVPLVDRATCLESTKFTIYNNMFCAGFHEGGRDSCQGDSGGPHVTEVEGTSFLTGIISWGEECAMKGKYGIYTKVSEYVNWIKNKTKLT	1.5
FIXa-R318Y/R338E/E410N/T412V (enzyme, also called R150Y/R170E/E240N/T242V (chymotrypsin numbering)) chain 1: YNSGKLEEFVQGNLERECMEEKCSFEEAREVFENTERTTEFWKQYVDGDQCESNPCLNGGSCKDDINSYECWCPFGFEGKNCELDVTCNIKNGRCEQFCKNSADNKVVCSCTEGYRLAENQKSCEPAVPFPCGRVSVSQTSKLTR chain 2: VVGGEDAKPGQFPWQVVLNGKVDAFCGGSIVNEKWIVTAAHCVETGVKITVVAGEHNIEETEHTEQKRNVIRIIPHHNYNAAINKYNHDIALLELDEPLVLNSYVTPICIADKEYTNIFLKFGSGYVSGWGRVFHKGYSALVLQYLRVPLVDRATCLESTKFTIYNNMFCAGFHEGGRDSCQGDSGGPHVTEVEGTSFLTGIISWGEECAMKGKYGIYTKVSRYVNWIKNKVKLT	10.7
